Laboratory results: publication PMC9482650, “Quantitative fragmentomics allow affinity mapping of interactomes” (Nature Communications, 2022)

T1: GRIP1_5, Q9Y3R0
T1 sequence (Q9Y3R0 568-668, limits assumed, looked up): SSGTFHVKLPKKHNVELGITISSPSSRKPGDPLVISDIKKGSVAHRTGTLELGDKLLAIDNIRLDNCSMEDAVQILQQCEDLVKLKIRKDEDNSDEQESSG

T2: SHANK1, Q9Y566
T2 sequence (Q9Y566 658-767, limits assumed, looked up): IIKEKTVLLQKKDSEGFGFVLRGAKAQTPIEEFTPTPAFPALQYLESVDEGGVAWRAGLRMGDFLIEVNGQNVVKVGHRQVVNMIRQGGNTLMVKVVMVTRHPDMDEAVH

T3: SNTB1, Q13884
T3 sequence (Q13884 107-205, limits assumed, looked up): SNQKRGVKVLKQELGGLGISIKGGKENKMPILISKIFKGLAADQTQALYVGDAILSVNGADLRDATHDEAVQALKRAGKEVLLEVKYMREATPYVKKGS

T4: APBA3_1, O96018
T4 sequence (O96018 389-490, limits assumed, looked up): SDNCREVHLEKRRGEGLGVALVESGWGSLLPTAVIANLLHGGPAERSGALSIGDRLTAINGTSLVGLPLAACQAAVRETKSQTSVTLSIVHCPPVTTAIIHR

T5: FRMPD1, Q5SYB0
T5 sequence (Q5SYB0 52-145, limits assumed, looked up): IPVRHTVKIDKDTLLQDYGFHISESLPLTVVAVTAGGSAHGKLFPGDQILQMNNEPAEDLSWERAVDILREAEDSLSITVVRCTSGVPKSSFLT

T6: DVL3, Q92997
T6 sequence (Q92997 244-331, limits assumed, looked up): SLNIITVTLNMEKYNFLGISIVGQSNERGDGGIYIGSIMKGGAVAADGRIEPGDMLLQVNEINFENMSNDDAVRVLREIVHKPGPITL

T7: PDZD7_3, Q9H5P4
T7 sequence (Q9H5P4 857-944, limits assumed, looked up): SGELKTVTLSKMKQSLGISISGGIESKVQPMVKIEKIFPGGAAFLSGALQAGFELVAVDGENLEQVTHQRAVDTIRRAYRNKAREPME

T8: APBA2_1, Q99767
T8 sequence (Q99767 563-664, limits assumed, looked up): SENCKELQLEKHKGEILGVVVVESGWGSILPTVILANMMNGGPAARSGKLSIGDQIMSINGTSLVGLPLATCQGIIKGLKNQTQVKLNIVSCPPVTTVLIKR

T9: TJP3_3, O95049
T9 sequence (O95049 375-456, limits assumed, looked up): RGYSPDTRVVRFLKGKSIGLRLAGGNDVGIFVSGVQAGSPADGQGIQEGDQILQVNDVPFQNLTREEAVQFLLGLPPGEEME

T10: ARHGAP21, Q5T5U3
T10 sequence (Q5T5U3 45-169, limits assumed, looked up): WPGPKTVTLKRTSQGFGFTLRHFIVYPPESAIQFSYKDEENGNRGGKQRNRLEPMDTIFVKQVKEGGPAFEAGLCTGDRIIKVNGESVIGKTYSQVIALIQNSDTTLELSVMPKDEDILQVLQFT

T11: DLG3_1, Q92796
T11 sequence (Q92796 125-227, limits assumed, looked up): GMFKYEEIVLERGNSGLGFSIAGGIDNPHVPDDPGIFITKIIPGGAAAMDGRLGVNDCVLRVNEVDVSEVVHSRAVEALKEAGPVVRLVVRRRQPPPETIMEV

T12: DLG3_2, Q92796
T12 sequence (Q92796 221-321, limits assumed, looked up): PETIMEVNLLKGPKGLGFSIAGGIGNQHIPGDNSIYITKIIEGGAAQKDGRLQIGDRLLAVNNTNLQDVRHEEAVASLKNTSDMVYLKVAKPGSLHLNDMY

T13: SYNJ2BP, P57105
T13 sequence (P57105 8-110, limits assumed, looked up): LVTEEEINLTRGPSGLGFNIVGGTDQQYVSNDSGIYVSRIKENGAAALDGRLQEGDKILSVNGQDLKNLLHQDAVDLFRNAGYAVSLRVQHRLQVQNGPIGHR


target: HTRA1, Q92743; experiment: holdup assay; set-up: key: below the threshold = too weak to quantify, mostly under pKd 3.1 to 4; details: plain residues with an end cap or a label only (N-terminal biotin on a linker: ado-ado)
Sequence (Q92743 360-477): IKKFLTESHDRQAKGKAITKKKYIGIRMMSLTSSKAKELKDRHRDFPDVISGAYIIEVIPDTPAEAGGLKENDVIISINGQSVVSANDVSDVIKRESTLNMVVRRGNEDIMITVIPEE

| pKd | Binder |
| --- | --- |
| 3.72 | PKSNSSKEYV [CLDN7, O95471] |
| 4.11 | KLQNPNQSVV [TYRP1, P17643] |

target: T1, GRIP1_5, Q9Y3R0; experiment: holdup assay; set-up: key: below the threshold = too weak to quantify, mostly under pKd 3.1 to 4; details: plain residues with an end cap or a label only (N-terminal biotin on a linker: ado-ado)

| pKd | Binder |
| --- | --- |
| below the threshold | PKSNSSKEYV [CLDN7, O95471] |
| below the threshold | KLQNPNQSVV [TYRP1, P17643] |

target: SCRIB_2, Q14160; experiment: holdup assay; set-up: key: below the threshold = too weak to quantify, mostly under pKd 3.1 to 4; details: plain residues with an end cap or a label only (N-terminal biotin on a linker: ado-ado)
Sequence (Q14160 857-960): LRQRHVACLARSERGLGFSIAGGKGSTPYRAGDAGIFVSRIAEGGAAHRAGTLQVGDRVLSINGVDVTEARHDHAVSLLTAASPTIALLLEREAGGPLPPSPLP

| pKd | Binder |
| --- | --- |
| below the threshold | PKSNSSKEYV [CLDN7, O95471] |
| below the threshold | KLQNPNQSVV [TYRP1, P17643] |

target: T2, SHANK1, Q9Y566; experiment: holdup assay; set-up: key: below the threshold = too weak to quantify, mostly under pKd 3.1 to 4; details: plain residues with an end cap or a label only (N-terminal biotin on a linker: ado-ado)

| pKd | Binder |
| --- | --- |
| below the threshold | PKSNSSKEYV [CLDN7, O95471] |
| below the threshold | KLQNPNQSVV [TYRP1, P17643] |

target: T3, SNTB1, Q13884; experiment: holdup assay; set-up: key: below the threshold = too weak to quantify, mostly under pKd 3.1 to 4; details: plain residues with an end cap or a label only (N-terminal biotin on a linker: ado-ado)

| pKd | Binder |
| --- | --- |
| below the threshold | PKSNSSKEYV [CLDN7, O95471] |
| 3.72 | KLQNPNQSVV [TYRP1, P17643] |

target: MAST1, Q9Y2H9; experiment: holdup assay; set-up: key: below the threshold = too weak to quantify, mostly under pKd 3.1 to 4; details: plain residues with an end cap or a label only (N-terminal biotin on a linker: ado-ado)
Sequence (Q9Y2H9 962-1065): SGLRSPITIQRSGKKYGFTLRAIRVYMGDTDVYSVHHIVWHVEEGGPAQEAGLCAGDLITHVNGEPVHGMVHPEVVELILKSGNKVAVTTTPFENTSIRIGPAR

| pKd | Binder |
| --- | --- |
| 3.62 | PKSNSSKEYV [CLDN7, O95471] |
| 4.37 | KLQNPNQSVV [TYRP1, P17643] |

target: T4, APBA3_1, O96018; experiment: holdup assay; set-up: key: below the threshold = too weak to quantify, mostly under pKd 3.1 to 4; details: plain residues with an end cap or a label only (N-terminal biotin on a linker: ado-ado)

| pKd | Binder |
| --- | --- |
| below the threshold | PKSNSSKEYV [CLDN7, O95471] |
| below the threshold | KLQNPNQSVV [TYRP1, P17643] |

target: PDLIM1, O00151; experiment: holdup assay; set-up: key: below the threshold = too weak to quantify, mostly under pKd 3.1 to 4; details: plain residues with an end cap or a label only (N-terminal biotin on a linker: ado-ado)
Sequence (O00151 1-87): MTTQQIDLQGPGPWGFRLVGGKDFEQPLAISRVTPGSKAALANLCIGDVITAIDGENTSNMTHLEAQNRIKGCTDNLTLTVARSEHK

| pKd | Binder |
| --- | --- |
| below the threshold | PKSNSSKEYV [CLDN7, O95471] |
| below the threshold | KLQNPNQSVV [TYRP1, P17643] |

target: T5, FRMPD1, Q5SYB0; experiment: holdup assay; set-up: key: below the threshold = too weak to quantify, mostly under pKd 3.1 to 4; details: plain residues with an end cap or a label only (N-terminal biotin on a linker: ado-ado)

| pKd | Binder |
| --- | --- |
| below the threshold | PKSNSSKEYV [CLDN7, O95471] |
| below the threshold | KLQNPNQSVV [TYRP1, P17643] |

target: MAGI2_5, Q86UL8; experiment: holdup assay; set-up: key: below the threshold = too weak to quantify, mostly under pKd 3.1 to 4; details: plain residues with an end cap or a label only (N-terminal biotin on a linker: ado-ado)
Sequence (Q86UL8 915-1017): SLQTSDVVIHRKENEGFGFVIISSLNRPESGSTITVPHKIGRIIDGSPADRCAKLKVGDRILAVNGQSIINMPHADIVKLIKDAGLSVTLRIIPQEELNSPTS

| pKd | Binder |
| --- | --- |
| below the threshold | PKSNSSKEYV [CLDN7, O95471] |
| 3.78 | KLQNPNQSVV [TYRP1, P17643] |

target: T6, DVL3, Q92997; experiment: holdup assay; set-up: key: below the threshold = too weak to quantify, mostly under pKd 3.1 to 4; details: plain residues with an end cap or a label only (N-terminal biotin on a linker: ado-ado)

| pKd | Binder |
| --- | --- |
| below the threshold | PKSNSSKEYV [CLDN7, O95471] |
| below the threshold | KLQNPNQSVV [TYRP1, P17643] |

target: T7, PDZD7_3, Q9H5P4; experiment: holdup assay; set-up: key: below the threshold = too weak to quantify, mostly under pKd 3.1 to 4; details: plain residues with an end cap or a label only (N-terminal biotin on a linker: ado-ado)

| pKd | Binder |
| --- | --- |
| below the threshold | PKSNSSKEYV [CLDN7, O95471] |
| 4.22 | KLQNPNQSVV [TYRP1, P17643] |

target: Inadl_6, Q8NI35; experiment: holdup assay; set-up: key: below the threshold = too weak to quantify, mostly under pKd 3.1 to 4; details: plain residues with an end cap or a label only (N-terminal biotin on a linker: ado-ado)
Sequence (Q8NI35 1058-1167): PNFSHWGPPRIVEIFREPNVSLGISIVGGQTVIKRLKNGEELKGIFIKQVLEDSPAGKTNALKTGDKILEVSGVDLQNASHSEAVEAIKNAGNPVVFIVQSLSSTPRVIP

| pKd | Binder |
| --- | --- |
| below the threshold | PKSNSSKEYV [CLDN7, O95471] |
| below the threshold | KLQNPNQSVV [TYRP1, P17643] |

target: T8, APBA2_1, Q99767; experiment: holdup assay; set-up: key: below the threshold = too weak to quantify, mostly under pKd 3.1 to 4; details: plain residues with an end cap or a label only (N-terminal biotin on a linker: ado-ado)

| pKd | Binder |
| --- | --- |
| below the threshold | PKSNSSKEYV [CLDN7, O95471] |
| below the threshold | KLQNPNQSVV [TYRP1, P17643] |

target: T9, TJP3_3, O95049; experiment: holdup assay; set-up: key: below the threshold = too weak to quantify, mostly under pKd 3.1 to 4; details: plain residues with an end cap or a label only (N-terminal biotin on a linker: ado-ado)

| pKd | Binder |
| --- | --- |
| below the threshold | PKSNSSKEYV [CLDN7, O95471] |
| below the threshold | KLQNPNQSVV [TYRP1, P17643] |

target: GRIP2_4, Q9C0E4; experiment: holdup assay; set-up: key: below the threshold = too weak to quantify, mostly under pKd 3.1 to 4; details: plain residues with an end cap or a label only (N-terminal biotin on a linker: ado-ado)
Sequence (Q9C0E4 446-548): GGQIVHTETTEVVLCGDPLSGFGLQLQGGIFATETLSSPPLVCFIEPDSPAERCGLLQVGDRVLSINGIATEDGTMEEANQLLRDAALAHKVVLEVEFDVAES

| pKd | Binder |
| --- | --- |
| below the threshold | PKSNSSKEYV [CLDN7, O95471] |
| below the threshold | KLQNPNQSVV [TYRP1, P17643] |

target: T10, ARHGAP21, Q5T5U3; experiment: holdup assay; set-up: key: below the threshold = too weak to quantify, mostly under pKd 3.1 to 4; details: plain residues with an end cap or a label only (N-terminal biotin on a linker: ado-ado)

| pKd | Binder |
| --- | --- |
| below the threshold | PKSNSSKEYV [CLDN7, O95471] |
| 3.98 | KLQNPNQSVV [TYRP1, P17643] |

target: T11, DLG3_1, Q92796; experiment: holdup assay; set-up: key: below the threshold = too weak to quantify, mostly under pKd 3.1 to 4; details: plain residues with an end cap or a label only (N-terminal biotin on a linker: ado-ado)

| pKd | Binder |
| --- | --- |
| below the threshold | PKSNSSKEYV [CLDN7, O95471] |
| below the threshold | KLQNPNQSVV [TYRP1, P17643] |

target: T12, DLG3_2, Q92796; experiment: holdup assay; set-up: key: below the threshold = too weak to quantify, mostly under pKd 3.1 to 4; details: plain residues with an end cap or a label only (N-terminal biotin on a linker: ado-ado)

| pKd | Binder |
| --- | --- |
| below the threshold | PKSNSSKEYV [CLDN7, O95471] |
| 3.86 | KLQNPNQSVV [TYRP1, P17643] |

target: DLG1_2, Q12959; experiment: holdup assay; set-up: key: below the threshold = too weak to quantify, mostly under pKd 3.1 to 4; details: plain residues with an end cap or a label only (N-terminal biotin on a linker: ado-ado)
Sequence (Q12959 314-412): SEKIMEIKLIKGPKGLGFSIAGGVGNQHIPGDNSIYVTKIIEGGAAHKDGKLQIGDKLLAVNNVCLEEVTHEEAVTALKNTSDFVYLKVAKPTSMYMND

| pKd | Binder |
| --- | --- |
| below the threshold | PKSNSSKEYV [CLDN7, O95471] |
| 4.06 | KLQNPNQSVV [TYRP1, P17643] |

target: MAGI2_6, Q86UL8; experiment: holdup assay; set-up: key: below the threshold = too weak to quantify, mostly under pKd 3.1 to 4; details: plain residues with an end cap or a label only (N-terminal biotin on a linker: ado-ado)
Sequence (Q86UL8 1141-1229): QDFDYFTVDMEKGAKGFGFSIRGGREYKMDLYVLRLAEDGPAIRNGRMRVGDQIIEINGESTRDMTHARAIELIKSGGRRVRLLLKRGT

| pKd | Binder |
| --- | --- |
| below the threshold | PKSNSSKEYV [CLDN7, O95471] |
| below the threshold | KLQNPNQSVV [TYRP1, P17643] |

target: GRID2IP_2, A4D2P6; experiment: holdup assay; set-up: key: below the threshold = too weak to quantify, mostly under pKd 3.1 to 4; details: plain residues with an end cap or a label only (N-terminal biotin on a linker: ado-ado)
Sequence (A4D2P6 272-370): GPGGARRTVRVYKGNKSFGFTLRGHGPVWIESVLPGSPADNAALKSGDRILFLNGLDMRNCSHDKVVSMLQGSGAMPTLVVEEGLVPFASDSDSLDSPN

| pKd | Binder |
| --- | --- |
| below the threshold | PKSNSSKEYV [CLDN7, O95471] |
| 3.63 | KLQNPNQSVV [TYRP1, P17643] |

target: Inadl_4, Q8NI35; experiment: holdup assay; set-up: key: below the threshold = too weak to quantify, mostly under pKd 3.1 to 4; details: plain residues with an end cap or a label only (N-terminal biotin on a linker: ado-ado)
Sequence (Q8NI35 547-651): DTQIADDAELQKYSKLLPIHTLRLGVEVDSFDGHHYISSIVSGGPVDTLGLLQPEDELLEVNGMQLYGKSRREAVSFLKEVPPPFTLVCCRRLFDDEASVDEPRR

| pKd | Binder |
| --- | --- |
| below the threshold | PKSNSSKEYV [CLDN7, O95471] |
| below the threshold | KLQNPNQSVV [TYRP1, P17643] |

target: T13, SYNJ2BP, P57105; experiment: holdup assay; set-up: key: below the threshold = too weak to quantify, mostly under pKd 3.1 to 4; details: plain residues with an end cap or a label only (N-terminal biotin on a linker: ado-ado)

| pKd | Binder |
| --- | --- |
| below the threshold | PKSNSSKEYV [CLDN7, O95471] |
| 3.91 | KLQNPNQSVV [TYRP1, P17643] |
